Test results from paper PMC10480186, “The self-association equilibrium of DNAJA2 regulates its interaction with unfolded substrate proteins and with Hsc70” (Nature Communications, 2023).
One block for each binder: values may come before it.

B6: Glucose-6-phosphate dehydrogenase (G6PDH) from Leuconostoc mesenteroides, aggregated (enzyme, UniProt P11411 1-486, looked up)
chain: MVSEIKTLVTFFGGTGDLAKRKLYPSVFNLYKKGYLQKHFAIVGTARQALNDDEFKQLVRDSIKDFTDDQAQAEAFIEHFSYRAHDVTDAASYAVLKEAIEEAADKFDIDGNRIFYMSVAPRFFGTIAKYLKSEGLLADTGYNRLMIEKPFGTSYDTAAELQNDLENAFDDNQLFRIDHYLGKEMVQNIAALRFGNPIFDAAWNKDYIKNVQVTLSEVLGVEERAGYYDTAGALLDMIQNHTMQIVGWLAMEKPESFTDKDIRAAKNAAFNALKIYDEAEVNKYFVRAQYGAGDSADFKPYLEELDVPADSKNNTFIAGELQFDLPRWEGVPFYVRSGKRLAAKQTRVDIVFKAGTFNFGSEQEAQEAVLSIIIDPKGAIELKLNAKSVEDAFNTRTIDLGWTVSDEDKKNTPEPYERMIHDTMNGDGSNFADWNGVSIAWKFVDAISAVYTADKAPLETYKSGSMGPEASDKLLAANGDAWVFKG
notes: glucose-6-phosphate dehydrogenase, Leuconostoc mesenteroides; Thermally denatured and aggregated before the co-sedimentation assay; native G6PDH served as the control that was subtracted; also called G6PDH aggregates; source: bought: Worthington

How the values were obtained:
[1] = target: the molecule itself; test: static light scattering; 15 µM DNAJA2 in refolding buffer (20 mM Hepes-KOH pH 7.6, 50 mM KCl, 5 mM MgCl2, 2 mM DTT) heated to 40 °C and cooled back to 25 °C; oligomers to dimers
[2] = target: B6; test: co-sedimentation; 2 µM Hsc70, 1 µM J-domain protein (DNAJB1, DNAJA2ΔCD or DNAJA2wt), 0.4 µM Apg2, 0.4 µM aggregated or native G6PDH; pellets on SDS-PAGE, band intensities; amounts in pellets with native G6PDH subtracted; details: both partners purified
[3] = target: the molecule itself; test: negative-stain electron microscopy; samples on carbon-coated grids, 2% uranyl acetate; 15 µM protein; tubular oligomers of dimers
[4] = target: the molecule itself; test: cross-linking; 2 µM protein, 0.005% glutaraldehyde, 15 min at 4 °C in 20 mM Hepes pH 7.6, 50 mM KCl, 5 mM MgCl2, 2 mM DTT; SDS-PAGE, Coomassie; monomer, dimer and oligomer bands
[5] = target: the molecule itself; test: dynamic light scattering; 30 µM protein in 20 mM Hepes-KOH pH 7.6, 50 mM KCl, 2 mM DTT; volume-based size distributions; the wt also with 300 mM NaCl, 5% 1,6-hexanediol or at 40 °C, which shift it to smaller particles; self-association: dimer and dimers to larger oligomers
Hsc70wt = target: T1, Hsc70wt (human, UniProt P11142 1-646); test: co-sedimentation; 2 µM Hsc70, 1 µM J-domain protein (DNAJB1, DNAJA2ΔCD or DNAJA2wt), 0.4 µM Apg2, 0.4 µM aggregated or native G6PDH; pellets on SDS-PAGE, band intensities; amounts in pellets with native G6PDH subtracted; details: both partners purified
T1 construct: Hsc70 (HSPA8), the constitutively expressed Hsp70 isoform, cDNA from Addgene; also called HSPA8
T1 sequence (P11142 whole entry, canonical isoform): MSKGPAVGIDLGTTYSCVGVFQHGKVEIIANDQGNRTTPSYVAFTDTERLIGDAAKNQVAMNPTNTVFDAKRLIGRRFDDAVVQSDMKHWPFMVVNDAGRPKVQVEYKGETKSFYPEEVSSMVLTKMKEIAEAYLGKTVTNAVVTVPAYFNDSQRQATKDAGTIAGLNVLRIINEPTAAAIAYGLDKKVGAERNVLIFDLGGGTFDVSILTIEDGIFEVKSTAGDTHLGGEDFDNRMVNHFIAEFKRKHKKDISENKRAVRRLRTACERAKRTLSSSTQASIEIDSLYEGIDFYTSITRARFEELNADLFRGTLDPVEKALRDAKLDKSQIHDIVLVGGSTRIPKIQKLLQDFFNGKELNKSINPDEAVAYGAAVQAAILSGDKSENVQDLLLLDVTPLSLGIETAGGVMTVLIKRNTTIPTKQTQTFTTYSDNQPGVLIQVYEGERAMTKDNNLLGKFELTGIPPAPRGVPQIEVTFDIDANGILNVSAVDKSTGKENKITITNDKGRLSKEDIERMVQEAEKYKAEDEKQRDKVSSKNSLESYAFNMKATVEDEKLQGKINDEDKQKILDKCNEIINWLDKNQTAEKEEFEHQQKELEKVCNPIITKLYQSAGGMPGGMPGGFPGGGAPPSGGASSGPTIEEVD

fold reduction of the aggregate-bound amount against DNAJB1 [2]: ~2 fold
B1: DNAJA2wt (natural protein)
chain: not shown
notes: DNAJA2, human class A J-domain protein; last residue Q412; Dimers that assemble into tubular oligomers; For cryo-EM and XL-MS the sample was cross-linked with BS3; The Ni-NTA-Nanogold is said to label Hsc70 specifically, so the His6-SUMO tag was probably removed; also called DnaJ2A
t1/2 of the temperature-induced dissociation of the oligomers (40 °C) [1]: 2.3 min

B2: DNAJA2ΔG/FR (natural protein)
chain: not shown
notes: DNAJA2, human, lacking the glycine/phenylalanine-rich region (deletion of residues 77 to 101); For cryo-EM and XL-MS the sample was cross-linked with BS3; also called DnaJA2∆G/FR; DnJA2ΔG/FR
binding result [3]: binds

B3: DNAJA2ΔZFLR (natural protein)
chain: not shown
notes: DNAJA2, human, lacking the Zn-finger-like region (deletion of residues 141 to 209)
stoichiometry N [4]: ≤ 2
stoichiometry N [5]: 2

binding result [2]: binds
B4: DNAJA2ΔCD (domain or fragment)
chain: not shown
notes: DNAJA2, human, lacking the disordered C-terminal domain (deletion of residues 361 to 412, V361 to Q412)
stoichiometry N [4]: 2

B5: DNAJA2LQ (natural protein)
chain: not shown
notes: DNAJA2, human, with L135 and Q136 in the CTDI mutated to Glu
stoichiometry N [4]: ≤ 2

Binder: B6
binding result (Hsc70wt): binds
